Consider 15 substances from patent US6355619B1, “Peptide tumor cell growth inhibitors” (Board of Regents, The University of Texas System, priority 1996, dated 2002).

The target of test [1] is IL-8 receptors on human neutrophils (human). Nature of the test: inhibition of 125I-IL-8 binding to human neutrophils, peptide 10 µM.
Test [2] shares this target. Kind of test: inhibition of 125I-IL-8 binding to human neutrophils, method of Example I; D-amino acid heptamer series.
Test [3] shares this target. Kind of test: inhibition of 125I-IL-8 binding to human neutrophils.
The target of test [4] is MGSA/GROα receptors on RPMI-7951 melanoma cells. Kind of test: 1 nM 125I-MGSA/GROα displaced by unlabeled MGSA/GROα on RPMI-7951 cells, Lundon II.
Test [5] deals with MGSA/GROα receptors on Hs 294T melanoma cells. Nature of the test: cell-based or functional assay.
Test [6] has the same target. Kind of test: 1 nM 125I-MGSA/GROα displaced by unlabeled MGSA/GROα on Hs 294T cells, Lundon II.
The subject of test [7] is MGSA/GROα receptors on RPMI-7951 melanoma cells. Nature of the test: Binding of 125I-MGSA/GROα to RPMI-7951 melanoma cells. The settings on record: RPMI-7951. As to the method:
(§1) FIG. 11A. The binding of ^125I-labeled MGSA/GROα to melanoma cell lines, Hs 294T and RPMI-7951. The melanoma cells, 1×10^5, were incubated with 1 nM ^125I-MGSA/GROα in the presence of various concentrations of unlabeled MGSA/GROα. Binding inhibition curve with Hs 294T (closed circles) and RPMI-7951 (open circles). The lines shown in the graph are the best fit curves calculated using the London II computer program.
(§2) FIG. 13. The effect of Antileukinate on the binding of radiolabeled MGSA/GROα to the melanoma cell lines. The melanoma cells, Hs 294T (closed circles) and RPMI-7951 (open circles), were incubated with 1 nM ^125I-MGSA/GROα in the presence of different concentrations of Antileukinate. The lines shown in the graph are the best fit curves calculated using the London II computer program.
(§3) Recombinant human MGSA/GROα and IL-8 were purchased form Pepro Tech Inc. (Rocky Hill, N.J.) and radioactively labeled using ^125I-labeled Bolton-Hunter reagent (DuPont-NEN, Wilmington, Del.) (Bolton and Hunter, 1973). The labeled proteins were isolated using Sephadex G-25 column (Column PD-10, Pharmacia) pre-equilibrated with PBS containing 0.1% gelatin and stored at −70° C. after the addition of 1% bovine serum albumin.
(§4) Binding studies with melanoma cell lines were performed by the method of Horuk and colleagues (Horuk et al., 1993). Briefly, the cells (1×10^5 cells/well) in 24-well plates were washed two times with Hank's Balanced Salt Solution and incubated with ^125I-labeled MGSA/GROα or IL-8 in the buffer containing 1% bovine serum albumin at 4° C. for 3 hr. The incubation was terminated by vacuum aspiration of the supernatant. The cells were washed three times in binding buffer, solubilized by the addition of 200 μl of 1% SDS, and transferred to vials for counting. The non-specific binding was estimated by measuring the binding in the presence of 100-fold excess of non-labeled ligand. The binding parameters were calculated using the Lundon II computer program (Lundon Software Inc., Chagrin Falls, Ohio).

Test [8] concerns MGSA/GROα receptors on Hs 294T melanoma cells. Nature of the test: Binding of 125I-MGSA/GROα to Hs 294T melanoma cells. On the set-up: species or system human. As to the method:
as §1, §2, §3, §4

Test [9] concerns the target Receptor 1 (Table 2; class of IL-8 receptors on human neutrophils, two-site model, Lundon I) (human). Nature of the test: saturation binding of 125I-IL-8 to human neutrophils, Lundon I, two-site model, in presence of 20 µM Ac-RRWWCR-NH2.
For test [10], the target named is Receptor 2 (Table 2; class of IL-8 receptors on human neutrophils, two-site model, Lundon I) (human). The test is described as above.
The target of test [11] is Receptor 2 (Table 3; class of IL-8 receptors on human neutrophils, two-site model, Lundon II) (human). Nature of the test: displacement of 1 nM 125I-IL-8 by unlabeled IL-8 on human neutrophils, Lundon II two-site model, +10 µM Ac-RRWWCR.
For test [12], the target named is Receptor 1 (Table 3; class of IL-8 receptors on human neutrophils, two-site model, Lundon II) (human). Described as above.
Test [13] deals with IL-8 receptors on human neutrophils (human). Kind of test: saturation binding of 125I-IL-8 to human neutrophils, Lundon I, one-site model, no peptide.
Test [14] addresses Receptor 2 (Table 3; class of IL-8 receptors on human neutrophils, two-site model, Lundon II) (human). Kind of test: displacement of 1 nM 125I-IL-8 by unlabeled IL-8 on human neutrophils, Lundon II two-site model, IL-8 alone.
Test [15] concerns the target Receptor 1 (Table 3; class of IL-8 receptors on human neutrophils, two-site model, Lundon II) (human). Described as above.
In test [16] the target is Receptor 1 (Table 2; class of IL-8 receptors on human neutrophils, two-site model, Lundon I) (human). Kind of test: saturation binding of 125I-IL-8 to human neutrophils, Lundon I, two-site model, in presence of 10 µM Ac-RRWWCR-NH2.
Test [17] deals with Receptor 2 (Table 2; class of IL-8 receptors on human neutrophils, two-site model, Lundon I) (human). The description is as above.
Test [18] deals with Receptor 1 (Table 2; class of IL-8 receptors on human neutrophils, two-site model, Lundon I) (human). Kind of test: saturation binding of 125I-IL-8 to human neutrophils, Lundon I, two-site model, in presence of 40 µM Ac-RRWWCR-NH2.
The target of test [19] is Receptor 2 (Table 2; class of IL-8 receptors on human neutrophils, two-site model, Lundon I) (human). The test is described as above.
In test [20] the target is IL-8 receptors on human neutrophils (human). Kind of test: inhibition of 1 nM 125I-IL-8 binding to human neutrophils, 90 min 4 °C, average of replicates.
The target is the same in test [21]. Kind of test: inhibition of 125I-IL-8 binding to human neutrophils, method of Example I; reference row of the heptamer table.
Test [22] shares this target. Kind of test: inhibition of 125I-IL-8 (10^-12 M) binding to human neutrophils, peptide 100 µM.
Test [23] shares this target. Nature of the test: inhibition of binding of 1 nM IL-8 to human neutrophils, 90 min on ice (FIG. 10).
Test [24] has the same target. Kind of test: inhibition of 125I-IL-8 binding to human neutrophils, assuming purely competitive single site model.
The target in test [25] is MGSA/GROα receptors on RPMI-7951 melanoma cells. Kind of test: cell-based or functional assay.
Test [26] deals with IL-8 receptors on human neutrophils (human). Kind of test: cell-based or functional assay.
Test [27] has the same target. Nature of the test: inhibition of 125I-IL-8 binding to human neutrophils; peptide concentration not given.
Test [28] has as its target MGSA/GROα receptors on RPMI-7951 melanoma cells. Nature of the test: inhibition of 1 nM 125I-MGSA/GROα binding to RPMI-7951 cells.
Test [29] addresses MGSA/GROα receptors on Hs 294T melanoma cells. Kind of test: inhibition of 1 nM 125I-MGSA/GROα binding to Hs 294T cells.
Test [30] deals with IL-8 receptors on human neutrophils (human). Nature of the test: inhibition of IL-8 binding to human neutrophils.

Where “and” joins values, the source holds several entries; their conditions need not be identical. Equal values may be shown once.

Recombinant human IL-8 (72 amino acids), sequence (P10145 28-99 limits assumed): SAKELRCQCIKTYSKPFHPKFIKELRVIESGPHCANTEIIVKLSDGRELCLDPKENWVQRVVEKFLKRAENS
Recombinant human MGSA/GROα, sequence (P09341 35-107): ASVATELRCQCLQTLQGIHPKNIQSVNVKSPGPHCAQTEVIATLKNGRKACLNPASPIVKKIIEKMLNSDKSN

For the substance Ac-rrwwcrc-NH2 (peptide), the % of IL-8 binding prevented in [1] is 80%. In [2], this substance displayed a % INHIB. of 108%. In [3], the fold potency against Ac-rrwwcr-NH2 (SEQ ID NO:1) is 4 fold.

With rrwwcry (peptide), in test [2], the % INHIB. was determined as 85.4%.

Take “Recombinant human MGSA/GROα (from UniProt P09341 35-107) (ligand)”: the figures for the Kd in [4] and in test [6] were 3 nM and 6 nM, respectively. Besides, the values for the maximal binding (Bmax) (fmole/10^5 cells) in test [4] and in [6] were 15 and 11, respectively. The reversal of the inhibition of Hs 294T growth by 50 µM Antileukinate in [5] stood at 50 nM.

Consider “MGSA/GROα: Recombinant human MGSA/GROα (Pepro Tech Inc.), 73 amino acid α-chemokine”, for which, in [7], the Kd is ~3 nM and the “maximal binding (Bmax) of MGSA/GROα” value turned out to be 15 fmole/10^5 cells. In test [8], the Kd was ~6 nM and the “maximal binding (Bmax) of MGSA/GROα” value turned out to be 11 fmole/10^5 cells.

The substance rrwwcrh (peptide) came in with a % INHIB. in test [2] of 107%.

On to rrwwcrv (peptide), for which, in [2], the % INHIB. was found to be 89.2%.

Turning to rrwwcrk (peptide), in [2], the % INHIB. worked out at 113%.

In test [2], rrwwcrq (peptide) returned a % INHIB. of 89.2%.

With “Recombinant human IL-8 (72 amino acids) (from UniProt P10145 28-99) (ligand)”, the Bmax (fmole/10^6 cells) in [9] stood at 90.9; in [10], 76.2; in test [11], 75.6; in [12], 11.2; in test [13] it was 174; in test [14], 68.8. Moreover, the Bmax (fmole/10^6 cells) worked out at 38.8 in test [15]; 91.9 in [16]; 90.9 in [17]; 82 in test [18]; 44.2 in [19]. In addition, the Kd in [9] was determined as 42.8 nM; in test [10], 0.8 nM; in [11], 0.76 nM; in test [12] it was 1.23 nM; in test [13], 1.3 nM; in test [14], 0.67 nM. Moreover, the Kd in test [15] was 0.03 nM; in test [16] it was 68 nM; in test [18] it was 13 nM; in test [19], 1.3 nM.

With Ac-RRWWCR-NH2 (peptide), the EC50 in test [20] came out at 13700 nM; in test [23], 25000 nM; in [28], 1000 nM; in test [29], 1000 nM. For the same substance, the % inhibition in test [1] is 20%. In addition, the % INHIB. in [21] and in [22] was 112% throughout. Further, the Ki in test [24] amounted to 10000 nM. Moreover, the growth of RPMI-7951 melanoma cells (cell number after 72 hr) in [25] was 31 µM. For the same substance, the growth of melanoma cells in culture in test [25] and in test [5] was 100 µM throughout. For the same substance, the growth of Hs 294T cells (cell number after 72 hr) in test [5] was 18 µM and 10 µM. In test [26], this substance yielded a chemotaxis of neutrophils stimulated with 10 nM of IL-8 of 50 µM. For the same substance, the enzyme release from neutrophils stimulated by IL-8 in test [26] stood at 0.8 µM. For the same substance, in test [26], the β-glucuronidase release stimulated by 100 nM of IL-8 turned out to be 2 µM. The % Binding Inhibition in test [27] was 98.6%. Besides, the fold effectiveness against the non-acetylated peptide in test [30] worked out at 2 fold.

As to rrwwcrl (peptide), the % INHIB. in test [2] was determined as 99.1%.

With rrwwcra (peptide), the % INHIB. in [2] was found to be 95.3%.

Ac-KELRCQ-NH2 (peptide): the % Binding Inhibition in test [27] is -0.4%.

In turn, rrwwcre (peptide) gave a % INHIB. in test [2] of 99.1%.

In the case of rrwwcrr (peptide), in [2], the % INHIB. came to 103%.
